Source: publication PMC9091920 (Journal of Pharmaceutical Analysis, 2021)

Legend:
[1] = biological target: recombinant human interferon α2b (human) (UniProt P01563); assay: BLI
[2] = biological target: recombinant human interferon α2b (human) (UniProt P01563); assay: far-Western, overlay or dot blot
[3] = biological target: recombinant human interferon α2b (human) (UniProt P01563); assay: lateral-flow immunochromatographic strip

B1: nanobody I22 (His-labeled, purified) (VHH)
VHH: QVQLVESGGGLVQPGGSLRLSCVASGFTFDSATMSWHRQAPGREREFVAMTSGGGMINYANSVKGRFTISRDNAKNTVYLQMDSLKPEDTAVYYCHRLGTFHWGQGTQVTVSS
Kd [1]: 2.06 nM | limit of detection [2]: 31.2 ng | limit of detection [3]: 1 µg/mL
